Measurements published in patent US20230227580A1, “ANTI-VWF ANTIBODIES AND USES THEREOF” (MONASH UNIVERSITY, priority 2020, published 2023).
“Also recorded” adds a separate entry of the source.

Tests used:
[1] = test system: VWF-GPIb binding (plasma VWF, isolated platelets); assay: Ristocetin-induced platelet agglutination test (RIPA); type: cell-based, human
Protocol: Platelet-poor plasma (PPP; source of plasma VWF) was prepared by centrifugation of citrated whole blood at 300 × g for 10 min to obtain platelet rich plasma (PRP) and further centrifugation of the PRP fraction at 1700 × g for 7 min. Isolated platelets (3 × 10^8/ml) suspended in platelet wash buffer (4.3 mM K2HPO4, 4.3 mM Na2HPO4, 24.3 mM NaH2PO4, 113 mM NaCl, 5.5 mM D-glu cose, and 10 mM theophylline, pH 6.5) were centrifuged at 1500 × g for 7 min. The washed platelets were subsequently resuspended at the same concentration in modified Tyrode’s buffer (10 mM Hepes, 12 mM NaHCO3, 137 mM NaCl, 2.7 mM KCI and 5 mM glucose, pH 7.3) containing calcium (1 mM), magnesium (1 mM) and apyrase (0.02 U ml^-1) (ADPase activity). Isolated platelets (150, 300 µL at 3 × 10^8/ml) and platelet poor plasma (50 µl) were incubated with 2, 2.5, 4, 5, 40 and 80 µg ml^-1 scFv A1 and the corresponding concentration of control scFv, or Tyrode’s buffer was used to neutralise any other aggregation mechanisms beside the VWF A1-GPlbα interaction. Platelet agglutination in response to 0.75 mg mL^-1 ristocetin (Helena Biosciences, Gateshead, UK) and in the presence of the αIIbβ3 (GPIIb/IIIa) blocker Integrilin was performed for 10 min on an AggRam system from Helena Laboratories, USA

[2] = test system: platelet aggregation / thrombus formation; assay: Progressive shear gradient flow model: whole blood over collagen type I patches in straight channels; type: cell-based, human; details: scFv A1 5 µg ml^-1, 1,000 s^-1
Source text: Fluid dynamics were simulated with a COMSOL Multiphysics 4.2 laminar flow module applied to three-dimensional meshes. For all simulations, no-slip boundary conditions and Newtonian fluids were assumed. To obtain meshes from the plain channel geometries, channel dimensions were taken from the original computer-aided design (CAD) files and reconstructed in COMSOL. To obtain meshes from platelet aggregate geometries, confocal fluorescence microscopy image z-stacks of labeled platelets were processed in ImageJ. Each image in a z-stack was converted into a binary image by thresholding, and an x-y heightmap was constructed by summing all binary data in a z-stack followed by multiplying the result with the height of the original z-stack as documented by the confocal microscope. […] Input flow parameters were set based on pump settings as used in the experiments, and were adjusted to account for the reduced width of the fluorescence aggregate meshes compared to the full channel geometries. […]
Citrated whole blood was incubated with DiOC6 (0.5 µg ml^-1) (Sigma-Aldrich Co, St. Louis, MO, USA) and drawn through microfluidic channels by a programmable syringe pump (Legato 130, KD Scientific, USA). […] Platelet deposition was recorded over time (2 frames per minute) for up to 20 minutes and quantified in ImageJ using a Z-projection of the acquired signal.

VWF-A1 domain = biological target: T1, VWF-A1 domain (Homo sapiens, UniProt P04275); assay: BLItz bio-layer interferometry, immobilized VWF-A1 domain; type: binding; details: scFv-A1 20, 40 and 100 µg ml^-1
T1 construct: coated with purified full length VWF or isolated A1 domain
Protocol: Bio-layer Interferometry was performed on a BIItz System (Pall Forte Bio, USA). Protein-A biosensors were hydrated for 30 minutes in PBS-Tween (0.05%) and loaded with VWF-A1 domain (130 µg ml^-1). Remaining binding sites were blocked by exposure to a polyclonal mouse IgG for 5 min. Sequential adhesion of scFv-A1 at 0, 20, 40 and 100 µg ml^-1 was monitored for 5 min per concentration. Real time visualisation of binding interactions between scFv A1 and full length VWF/A1 domain was performed using the BLItz Pro software. Traces were manually baseline aligned and corrected for control binding (0 µg ml^-1 scFv-A1).

full length VWF = biological target: T2, full length VWF (Homo sapiens, UniProt P04275); assay: ELISA binding to immobilized full length VWF; details: scFv A1 5 µg ml^-1; ristocetin 0.75 mg ml^-1
T2 construct: coated with purified full length VWF or isolated A1 domain
Protocol: ELISA wells (Thermo Fisher Scientific) were coated with purified full length VWF or isolated A1 domain at 0.1, 1 and 10 µg ml^-1 in the presence of ristocetin (0.75 mg ml^1) and blocked with 2% BSA. Next, the coated wells were incubated with 5 µg ml^-1 of scFv A1 or sheep anti-VWF antibody followed by incubation with an HRP-conjugated secondary antibody (Anti-his HRP for scFv A1, Donkey anti-sheep HRP antibody for sheep anti-VWF antibody) (1:4,000). Readings were measured at 450 nm on a BMG Optima multi-well reader.

VWF-platelet interaction = assay: Platelet-VWF adhesion on collagen III in stenotic microfluidic channels (SRG versus constant shear); type: cell-based, human
Source text: In-house designed PDMS microfluidic chips (FIG. 1A) contained channels of 52 µm height with a footprint of 300 µm x 46 mm (used in FIG. 1) or 300 µm x 17 mm. Selected channels incorporated a semi-circular stenotic section of various lengths (600 µm, 1000 µm or 2000 µm diameter), creating 80% lumen reduction. Chips were manufactured as previously reported (Westein et al. Proceedings of the National Academy of Sciences of the United States of America. 2013 Jan 22;110(4):1357-62). The produced PDMS chips were sealed with cover slips by hydrophobic interaction and coated with collagen by perfusion of collagen solution followed by static incubation at RT for at least 1 hr. Channels were rinsed with PBS and blocked with 2% BSA. Wall shear rates of the input flow for these microchannels were approximated from volumetric flow rates by using the equation, γ = 6Q/wh2. Herein, γ is the wall shear rate (s^-1), Q the volumetric flow rate (mls^-1), w the channel with (cm) and h the channel height (cm).
Citrated whole blood was incubated with DiOC6 (0.5 µg ml^-1) (Sigma-Aldrich Co, St. Louis, MO, USA) and drawn through microfluidic channels by a programmable syringe pump (Legato 130, KD Scientific, USA). Time-lapse z-stack images of platelet deposition were captured in multiple track, resonant scanning mode, using a Nikon A1R confocal microscope system. Platelet deposition was recorded over time (2 frames per minute) for up to 20 minutes and quantified in ImageJ using a Z-projection of the acquired signal.
For experiments measuring rolling velocities, anti αllbβ3 antibody (abciximab; 20 µg ml^-1)-treated whole blood containing 0.5 µg ml^-1 DiOC6 was drawn over a collagen type III-coated surface. Where indicated, blood was incubated with 30 µM aspirin (Sigma Aldrich, USA) and 300 µM 2-MeSAMP (Sigma-Aldrich Co, St. Louis, MO, USA) prior to blood perfusion. 10 second video clips of rolling platelets were recorded in the green fluorescent channel using an Olympus IX81 microscope system. Platelet rolling velocities were calculated using Diatrack v3.04 large scale particle tracking software (Vallotton et al. Microsc Microanal. 2013 Apr;19(2):451-60).

B1: scFv A1: single chain antibody combining variable heavy chain of mAb CR1 with variable light chain of mAb CR2; VH SEQ ID NO: 11, VL SEQ ID NO: 10 (antibody, V domains shown)
VH: QVQLQQPGAELVRPGASVKLSCKASGYSFTNYWMSWVKQRPGQGLEWIGMIHPSDSDTRLNQKFKDKATLTVDKSSSTAYMQLSSPTSEDSAGLLLCKKFEGWLPVLLGPRHHSHSLLS
VL: DIELTQSPASLAVSLGQSYRASCKSVSTSGYSYMHWNQQKPGQPPRLLIYLVSNLESGVPARFSGSGSGTDFTLNIHPVEEEDAATYYCQHIRELTRSEGDQAEINR
modifications: scFv linker; Mouse
Question: Which results are given for B1?
Answer: Ristocetin-induced platelet agglutination ([1]; plasma VWF preincubated with scFv A1 and ristocetin prior to platelet binding): minor inhibitory effect; Ristocetin-induced agglutination of isolated platelets ([1]; scFv A1 up to 80 µg ml^-1, ristocetin 0.75 mg ml^-1, plasma VWF present): did not result in delayed or reduced agglutination; Platelet aggregation in the rear area of the collagen patch ([2]; constant shear, SRGs absent): did not reduce; also recorded: not at the rear; Platelet aggregation at the front area of the collagen patch ([2]; local shear gradient): selectively attenuated; also recorded: inhibited platelet aggregation only at the front of the patch; Binding to immobilized VWF-A1 domain (VWF-A1 domain): did not observe any binding; Binding to immobilized full length VWF (full length VWF): did not bind; Platelet adhesion (VWF-platelet interaction; scFv A1 5 µg ml^-1, stenosis apex, control 3934±892, p=0.7932): 3805±783 platelets/mm^2; Platelet-VWF adhesion (VWF-platelet interaction; scFv A1 5 µg ml^-1, stenosis inlet, control 6187±1097, p=0.0013): 5158±1032 platelets/mm^2; Platelet adhesion (VWF-platelet interaction; scFv A1 5 µg ml^-1, stenosis outlet, control 5042±1167, p=0.07): 4475±1199 platelets/mm^2; Platelet deposition (VWF-platelet interaction; scFv A1 5 µg ml^-1, straight section, constant shear, control 2047±232, p=0.0195): 3096±690 platelets/mm^2; Relative amount of VWF per platelet deposited on aggregates (VWF-platelet interaction; scFv A1, areas of SRGs and constant shear): not reduced
